# In patent publication US20100248978, “METHOD FOR IDENTIFYING THE INTERACTION PARTNER OF AN ACTIVE AGENT” (Bayer Cropscience AG, published 2010):
# T1: p-hydroxyphenylpyruvate dioxygenase (HPPD) (Arabidopsis thaliana, UniProt P93836 P93836:1-445)
# T1 sequence: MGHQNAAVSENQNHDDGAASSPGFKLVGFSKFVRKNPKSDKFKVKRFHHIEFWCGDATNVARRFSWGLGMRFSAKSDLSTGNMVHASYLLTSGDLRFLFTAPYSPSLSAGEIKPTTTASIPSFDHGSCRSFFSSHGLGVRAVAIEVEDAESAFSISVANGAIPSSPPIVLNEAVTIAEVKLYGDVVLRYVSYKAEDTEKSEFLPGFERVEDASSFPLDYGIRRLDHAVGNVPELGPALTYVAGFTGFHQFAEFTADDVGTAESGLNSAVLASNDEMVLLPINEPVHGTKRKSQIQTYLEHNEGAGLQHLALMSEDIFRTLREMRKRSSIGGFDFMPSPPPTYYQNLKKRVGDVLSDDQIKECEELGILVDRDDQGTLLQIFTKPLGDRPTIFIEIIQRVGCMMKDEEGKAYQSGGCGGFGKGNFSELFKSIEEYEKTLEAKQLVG
# Columns and labels:
# Settings in all cases: tags: His-tag; biotinylated in the SELEX runs
# [1] = molecular target: T1, p-hydroxyphenylpyruvate dioxygenase …; experiment: FP; nitrocellulose filter retention (method is filter binding)
# Protocol: (§1) The bound RNA molecules were eluted by heating to 95° C. and amplified by RT-PCR and in vitro transcription before starting the next selection cycle. A nitrocellulose filter retention assay was used to determine binding of selected, radioactively labelled RNA libraries to recombinant protein (Methods in Enzymology, Vol 267, Combinatorial Chemistry, (1996), Abelson J. N. and Simon M. I., eds. Academic Press, San Diego). RNA library (−80 nM) was incubated with increasing concentrations of target protein in binding buffer and subsequently filtered through nitrocellulose filters which bind to proteins but not to RNA molecules. RNA bound to the target protein is retained within the complex on the filter and was quantified by a phosphoimager. Values were calculated as the percentage of total radiolabeled RNA in the reaction.
# (§2) To determine the binding properties of individual aptamers isolated as part of the mixture of aptamers binding to HPPD in the previous example, aptamers were cloned into a vector, and 24 clones were sequenced. […]
# [2] = molecular target: T1, p-hydroxyphenylpyruvate dioxygenase …; experiment: filter; 20 mM Hepes pH 7.4, 150 mM NaCl, 3 mM MgCl2
# Description: as §1, with “The T7-RNA polymerase promoter is underlined. The double stranded DNA template was used to transcribe the initial RNA library. The procedures to produce an RNA library and to perform a SELEX experiment are well known to a person skilled in the art and described in, e.g., Methods in Enzymology, Vol 267, Combinatorial Chemistry (1996), Abelson J. N. and Simon M. I., eds. Academic Press, San Diego. Subsequently, the complexes between target and RNA were captured on streptavidin-coated beads and unbound RNA was removed by washing with binding buffer. The” for “The”, “reaction. […]” for “reaction.”
# [3] = molecular target: T1, p-hydroxyphenylpyruvate dioxygenase …; experiment: filter; nitrocellulose filter retention
# Protocol: as §1, §2
Binder,Kd [3] [nM],also measured
S116D-C8 (ssRNA) RNA: GGGAGAGGAGGGAGAUAGAUAUCAAUAAAGUCGGUGACACCACGCAUCCAAAUACCGGUACGCGGAACUAAUAGUUUGUCCUCACGGUGGAUGG,,Kd [1]: 120 nM
S115A-C1 (ssRNA) RNA: GGGAGAGGAGGGAGAUAGAUAUCAACAAUGACUAGCCGUGUAAGUGGUCUCGUACAUCCGAAAAAGACGACCCAGUUUGUCCUCACGGUGGAUGG,,Kd [2]: 128 nM
S116B-C4 (ssRNA) RNA: GGGAGAGGAGGGAGAUAGAUAUCAAGUAACAAAUGAUACUUUCCAAGCAUAAUUCAUUCGCAGCCCGAAUUAAGUUUGUCCUCACGGUGGAUGG,740,
S116C-C18 (ssRNA) RNA: GGGAGAGGAGGGAGAUAGAUAUCAAUAUCGCCACGUUACGAGUACCAAGCUUUAUUUCCGCAGCCCGAUAGAGUUUGUCCUCACGGUGGAUGG,832,
